The data set concerns the molecule itself. In words: single-molecule photobleaching step analysis.

B1: EmrE with a TC-tag (natural protein)
chain: MNPYIYLGGAILAEVIGTTLMKFSEGFTRLWPSVGTIICYCASFWLLAQTLAYIPTGIAYAIWSGVGIVLISLLSWGFFGQRLDLPAIIGMMLICAGVLIINLLSRSTPH
modifications: FlAsH dye bound covalently to the tetracysteine tag
What is called stoichiometry N is the number of molecules, sites or subunits per partner or assembly. With B1, the “stoichiometry N” value is 2.
